Measured values as given in the DeepSol protein solubility set.

Test: soluble on expression in E. coli; label from the status in PepcDB or PDB records

Sequence | soluble on expression in E. coli
MVEINNQRKAFLDMLAWSEGTDNGRQKTRNHGYDVIVGGELFTDYSDHPRKLVTLNPKLKSTGAGRYQLLSRWWDAYRKQLGLKDFSPKSQDAVALQQIKERGALPMIDRGDIRQAIDRCSNIWASLPGAGYGQFEHKADSLIAKFKEAGGTVREIDV | soluble
HRWITRPKFTHFDLHTLNWDLCLTQANHKSNLALEMLKMLLDSLPETVEKIQTALGQNDQATMLSTIHKLHGASCYCGVPTTQRLCQEIESALKRQTPVEDLEPEILELLDELTKVESAVKQVLSQLSAEITDDQKNGLL | soluble
MGSSHHHHHHSSGLVPRGSHMIRYSEVTPYHVTSVWTKGVTPPANFTQGEDVFHAPYVANQGWYDITKTFNGKDDLLSGAATAGNMLHWWFDQNKDQIKRYLEEHPEKQKINFNGEQMFDVKEAIDTKNHQLDSKLFEYFKEKAFPYLSTKHLGVFPDHVIDMFINGYRLSLTNHGPTPVKEGSKDPRGGIFDAVFTRGDQSKLLTSRHDFKEKNLKEISDLIKKELTEGKALGLSHTYANVRINHVINLWGADFDSNGNLKAIYVTDSDSNASIGMKKYFVGVNSAGKVAISAKEIKEDNIGAQVLGLFTLSTGQDSWNQTN | soluble
MTVVDAHLHVWDPEQAAYEWLGPAMAPVDRAMRFHDALPALRTAGVGAAVLVQAADNDEDTDLMLATAARHPEVVGVVAWVPLDDPGRARARLAALRRDPHVVGVRTLLHERSDPDWVLGPDADAGLALLAEAGLPFDYSTTSPAALRHLAELSARHPALRLVVDHLGKPPVGGGREDRAEWHRLIAAAAKHPGVHAKLSGLYSASGALDAWTTDEVRPFVEDALELFGPERLMYGGDWPISLLAGGYARTWEAMCELLAPLAPDDRAAVLGGTATRFYRLDPALLNTAHHAAVLEHHHHHH | not soluble
MIRVACVGITVMDRIYYVEGLPTESGKYVARNYTEVGGGPAATAAVAAARLGAQVDFIGRVGDDDAGNSLLAELESWGVNTRYTKRYNQAKSSQSAIMVDTKGERIIINYPSPDLLPDAEWLEEIDFSQWDVVLADVRWHDGAKKAFTLARQAGVMTVLDGDITPQDISELVALSDHAAFSEPGLARLTGVKEMASALKQAQTLTNGHVYVTQGSAGCDWLENGGRQHQPAFKVDVVDTTGAGDVFHGALAVALATSGDLAESVRFASGVAALKCTRPGGRAGIPDCDQTRSFLSLFV | not soluble
MMMDLNIRRVVLDVDKGLNRPTLVELAAAIEKVQGVEAVNIIVTEMDMETMGTNITVEGTNINYDELIETIENTGSAIHSVDEIAVGKRLIENVRR | not soluble
MTKKCPKCGNEFDAELTTCPTCGYSLTDTTVDKEEAETTSTNIDFETQENEEHEDQLNENIEWSELKDMSLGHVMELFGESPEEESNDDKKEESTEDNLIVSDSEDVSGLEASLQEGASEETHDSVEESIPATEETPTHSTEEKLATDEAVNLEETTEETTEETTTVEAETAEVSETVKSEEEALTEISGTEVISTTSEEEIFSQPPIEDQDVTPNETLQAYIQAHRADTEMSENPSEETAETQELENSGEAVLTQAETPTESISDSEEGLTSAASLEAPSDADATEGKVSDSGVIPPMNETGNAQPAPAPKKPSKKVVFVALAVVLLAGGSAWAYHDQTQKAAAQEAAALTKKTDTLKDELAAFYTTKEQVFIKPDMVTVSPEKLSKQVAEIKDSEEYSQLNKQIQTLKEKQQTIQQINQLFEAPIVNGNELKPAILAADQPISVKKLTGNDPFDQLMNQAIDQANQQYNQLQKAKKAVEVIYKDGKTTNQLNRDTYQAAKAEVDKVTSDKLKKELVKQVTTADQALTKVEEEQKRIAEEQAAAEQAKQAEEQAKQAAAAKKEDAKKEETAKTEANGYTAPNSDGVYTSPLYAPDAADIADSSNPAWTWAPGVKEKVLDTVIARGYVVPGGYSLEPAKIVNGEGYYNLYATNNQSKLLEGTTEKNVHMYLVTINAKTGWFKGNASRNAGQ | not soluble
MGSDKIHHHHHHMKLLEVKGLKKYFPLTKGFFKKVVGYVRAVDDVSFDIKQGETLALVGESGCGKTTTAKSILRAIDPTDGDVILHLDGKDVNIAKLSRDELKPYRRYMQMIFQNPYTSLNPRMKVKEIVGEPLLVNGIAKGKELEDRVAELLKAVGLRPEYMIRYPHAFSGGQRQRIVIARAIALRPKLVVCDEPTSALDVSIRAQILNLLMDLQEEFALTYLFITHDLSVVEHISDRVAVMYLGKIVELSSTEEIFENPKHPYTETLLRSVPKPDPDLREELVPIEGEVPNPANPPSGCYFHPRCPYAKSICKEEYPEFRNLGTEDNPHYVACHFAESLKLRGVKITL | not soluble
MEVRFTRGKSAILERSLTRPKTEVSVSAFALLFSEMVQYCQSRVYSVSELQARLADMGQGVGASLLDVLVMREKNGKRETKVLNILLFIKVNVWKALFGKEADKLEQANDDDKTYYIIEKEPLINAYISVPKENSTLNCAAFTGGIVEAILTHSGFPAKVTVHWHKGTTLMIKFDESVIARDKALDGR | soluble
MYVLIGGAGLIGQQLARQVLDQGHTVAVIDQDPQVCKMVRDRLGAMAFEGSAVNTDILLEAGICRADAVAAVLRQDALNLALVTLACHYGVSRIISRISQQDFIEPMRLAGAHHIISTVDLVVSTMVNAIECPQVESMLHFEQGQIEVFKLTLDSQSPVIGRSVAAIAQDRNFPSSSLIIGYQSHPQADLVIPSGNTVLEANATVLLATKPGLVQSLVNFLMPSLFSPLQPAGVLHQLEHHHHHH | soluble
GPGSMQSNAPFDPEREALRNEAIKKTVERNVTQARLKKVNDDVKLQQRELDKVEDQVNALLSIGHYVGEVLKRVDEERFIVKSISGARHLVGYRKSIKPEKLKFGARVALEITTFTIVKVLPREVDPQVYSMQYMSSDKDVSFQDIGGLQPQMRQMREVIELPLTNPELFVRVGIAPPKGVLLYGPPGTGKTLLAKAIAANVDAAFLKIVASSIVDKYIGESARVIREMFAYAREHEPCIIFIDEVDAIGSKRIEGSSSDREIQRTLMELLNQMDGFDKLGKVKVIMATNRPDTLDAALMRPGRLDRKIEIPLPNEAGRLDVLRIHSAKITKKGDIDFESVVKLSEGFNGADLRNVCTEAGMFAIRAGRDYVENSDFNKAVRKVADMKRLEGTAHQYSDQ | not soluble
MSNNNTSIHDFDFSFICNYFKLLKRQGPGSPEATRKAVSFINELTDDAKIADIGCGTGGQTLFLADYVKGQITGIDLFPDFIEIFNENAVKANCADRVKGITGSMDNLPFQNEELDLIWSEGAIYNIGFERGMNEWSKYLKKGGFIAVSEASWFTSERPAEIEDFWMDAYPEISVIPTCIDKMERAGYTPTAHFILPENCWTEHYFAPQDEVRETFMKEHAGNKTAMDFMKGQQYERSLYSKYKDYYGYVFYIGQKRLEHHHHHH | soluble
MASFTSPDIDEKLAILHREMASLRVECDRLLNKHLIVEHTLSQSCSGWPNGAADTSSAYNTGGESCRSVSVTPDGVFIPTTSNSQMIQSQPSPRVLRRTVKMASPAVQRRLVPQNLPTSSSSRPPTVLLPHDSPEQPSRPIHRMHQELPIPEDVVSMVSSNKTQRSIIRAPSAVFGALKGSSLRKLSISRNIQMTTKVNKEESDRKEKEAEEYAKRFRIPSYSVVLKEEKRKSSFRIPVPHYFRSSKAKSKVYQVDAPDEEIEEVIDEEKMAAKTDLGDTTVHYKWKVKRRCDGSRYIVKRPIRSQILKKREAQVYRERAPISTDDDAMSELKLGRYHTKEERKRILERENTKKMLKLQQKMMEKAHPSEQVIYQMSQQKLARQKDAMVMDEFVTTREVLSSRTRPDGIHGVVSVTTV | not soluble
MGSDKIHHHHHHMLILYQFERTWGNPNLSHFCCKTETYLRMAGIEYAIKTTLPLFAPKGKLPYIKDGNIKLADSRFIIRHLKNRYKDLDEGLNPAEIALSLAMQRLIEEHLFWATMYTRWQYTDVNWQVNKKAIFDVLPPAIRDVAAVIYRYRIRRQIYGHGMGRHKPEEIFELGMQDIDALSACLGDKKYFLGDQPTTLDASAFGFLINTIACPIESPLKEYGLSKENLGDYIDRIKMQYYPDLQ | not soluble
